Laboratory results: the supplement of paper PMC10567573

B1: DVL3 (parent)
chain: FPELGYSYGGGSASSQHSEGSRSS
B2: GLT8D2 (parent)
chain: QEAKLLHWNGRHKPWDFPSVHNDL
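Further: lentivirally expressed fusions sorted by FACS into six bins by GFP to DsRed ratio, PSI derived from sequencing read proportions per bin multiplied by bin number.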

Variants of: B1
Test: protein stability index of a GFP-peptide fusion (GPS, HEK-293T) (PSI 1-6); higher = more stable
Settings: c terminus: a fixed tail appended
With FPELGYSYGGGSASSQHSEGSRSA [S24A] the protein stability index was 3.5. FPELGYSYGGGSASSQHSEGSRSV [S24V] gave a protein stability index of 2.34. With FPELGYSYGGGSASSQHSEGSRSK [S24K] the protein stability index was 3.42. For FPELGYSYGGGSASSQHSEGSRSQ [S24Q], the protein stability index was 3.01. In the case of FPELGYSYGGGSASSQHSEGSRSD [S24D], the protein stability index is reported as 3.24. FPELGYSYGGGSASSQHSEGERSS [S21E] gave a protein stability index of 3. FPELGYSYGGGSASSQHSEGYRSS [S21Y] showed a protein stability index of 2.88. With FPELGYSYGGGSASSQHSEGLRSS [S21L] the protein stability index was 2.61. For FPELGYSYGGGSASSQHSEGDRSS [S21D], the protein stability index was 2.87. FPELGYSYGGGSASSQHSEGWRSS [S21W] showed a protein stability index of 2.29. FPELGYSYGGGSASSQHSEGTRSS [S21T] gave a protein stability index of 3.24. With FPELGYSYGGGSASSQHSEGPRSS [S21P] the protein stability index was 3.43. Variant FPELGYSYGGGSASSQHSEGKRSS [S21K] has a protein stability index of 3.17. FPELGYSYGGGSASSQHSEGARSS [S21A] showed a protein stability index of 2.94. Work on FPELGYSYGGGSASSQHSEGVRSS [S21V] yielded a protein stability index of 3.07. For FPELGYSYGGGSASSQHSEGFRSS [S21F], the protein stability index was 2.56. With FPELGYSYGGGSASSQHSEGNRSS [S21N] the protein stability index was 2.91. Work on FPELGYSYGGGSASSQHSEGCRSS [S21C] yielded a protein stability index of 3.3. FPELGYSYGGGSASSQHSEGRRSS [S21R] showed a protein stability index of 2.62. In the case of FPELGYSYGGGSASSQHSEGQRSS [S21Q], the protein stability index is reported as 3.41. FPELGYSYGGGSASSQHSEGGRSS [S21G] showed a protein stability index of 2.71. Variant FPELGYSYGGGSASSQHSEGMRSS [S21M] has a protein stability index of 2.78. FPELGYSYGGGSASSQHSEGIRSS [S21I] gave a protein stability index of 2.83. FPELGYSYGGGSASSQHSEGHRSS [S21H] showed a protein stability index of 2.94. FPELGYSYGGGSASSQGSEGSRSS [H17G] gave a protein stability index of 3.07. FPELGYSYGGGSASSQASEGSRSS [H17A] gave a protein stability index of 3.12. In the case of FPELGYSYGGGSASSQRSEGSRSS [H17R], the protein stability index is reported as 2.61. With FPELGYSYGGGSASSQFSEGSRSS [H17F] the protein stability index was 2.77. With FPELGYSYGGGSASSQESEGSRSS [H17E] the protein stability index was 3.29. With FPELGYSYGGGSASSQNSEGSRSS [H17N] the protein stability index was 3.31. FPELGYSYGGGSASSQDSEGSRSS [H17D] gave a protein stability index of 3.08. FPELGYSYGGGSASSQSSEGSRSS [H17S] gave a protein stability index of 2.8. With FPELGYSYGGGSASSQTSEGSRSS [H17T] the protein stability index was 3.12. Variant FPELGYSYGGGSASSQVSEGSRSS [H17V] has a protein stability index of 3.22. FPELGYSYGGGSASSQKSEGSRSS [H17K] gave a protein stability index of 3.12. With FPELGYSYGGGSASSQYSEGSRSS [H17Y] the protein stability index was 2.45. In the case of FPELGYSYGGGSASSQMSEGSRSS [H17M], the protein stability index is reported as 2.62. In the case of FPELGYSYGGGSASSQCSEGSRSS [H17C], the protein stability index is reported as 3.1. With FPELGYSYGGGSASSQLSEGSRSS [H17L] the protein stability index was 2.77. In the case of FPELGYSYGGGSASSQPSEGSRSS [H17P], the protein stability index is reported as 3.35. Work on FPELGYSYGGGSASSQQSEGSRSS [H17Q] yielded a protein stability index of 2.83. Variant FPELGYSYGGGSASSQISEGSRSS [H17I] has a protein stability index of 2.74. With FPELGYSYGGGSASSQWSEGSRSS [H17W] the protein stability index was 2.77. FPELGYSYGGGSASSQHSEGSRKS [S23K] gave a protein stability index of 3.05. For FPELGYSYGGGSASSQHSEGSRRS [S23R], the protein stability index was 3.05. FPELGYSYGGGSASSQHSEGSRWS [S23W] gave a protein stability index of 2.59. Work on FPELGYSYGGGSASSQHSEGSRES [S23E] yielded a protein stability index of 2.9. Variant FPELGYSYGGGSASSQHSEGSRCS [S23C] has a protein stability index of 3.38. Variant FPELGYSYGGGSASSQHSEGSRPS [S23P] has a protein stability index of 3.23. Variant FPELGYSYGGGSASSQHSEGSRGS [S23G] has a protein stability index of 3.26. In the case of FPELGYSYGGGSASSQHSEGSRLS [S23L], the protein stability index is reported as 2.49. In the case of FPELGYSYGGGSASSQHSEGSRMS [S23M], the protein stability index is reported as 2.33. FPELGYSYGGGSASSQHSEGSRFS [S23F] showed a protein stability index of 2.39. In the case of FPELGYSYGGGSASSQHSEGSRAS [S23A], the protein stability index is reported as 2.97. FPELGYSYGGGSASSQHSEGSRHS [S23H] showed a protein stability index of 3.33. Variant FPELGYSYGGGSASSQHSEGSRYS [S23Y] has a protein stability index of 2.49. Work on FPELGYSYGGGSASSQHSEGSRTS [S23T] yielded a protein stability index of 2.46. In the case of FPELGYSYGGGSASSQHSEGSRQS [S23Q], the protein stability index is reported as 3.24. FPELGYSYGGGSASSQHSEGSRIS [S23I] gave a protein stability index of 3.34. FPELGYSYGGGSASSQHSEGSRNS [S23N] showed a protein stability index of 2.91. With FPELGYSYGGGSASSQHSEGSRVS [S23V] the protein stability index was 2.63. Work on FPELGYSYGGGSASSQHSEGSRDS [S23D] yielded a protein stability index of 3.17.

Variants of: B2
Test: as above
Settings: c terminus: a fixed tail appended
Variant QEAKLLHYNGRHKPWDFPSVHNDL [W8Y] has a protein stability index of 2.42. Work on QEAKLLHWNGRIKPWDFPSVHNDL [H12I] yielded a protein stability index of 2.56. With QEAKLLHWNGRMKPWDFPSVHNDL [H12M] the protein stability index was 2.6. QEAKLLHWNGHHKPWDFPSVHNDL [R11H] gave a protein stability index of 2.64. Work on QEAKLLHWNGTHKPWDFPSVHNDL [R11T] yielded a protein stability index of 3.11. With QEAKLLHWNGGHKPWDFPSVHNDL [R11G] the protein stability index was 2.64. Variant QEAKLLFWNGRHKPWDFPSVHNDL [H7F] has a protein stability index of 2.41. With QEAKLLMWNGRHKPWDFPSVHNDL [H7M] the protein stability index was 2.56. For QEAKLLEWNGRHKPWDFPSVHNDL [H7E], the protein stability index was 2.98. With QEAQLLHWNGRHKPWDFPSVHNDL [K4Q] the protein stability index was 2.5. Variant QEAYLLHWNGRHKPWDFPSVHNDL [K4Y] has a protein stability index of 2.13. In the case of QEAKLLHWNGRHKPWDFPSVHNDP [L24P], the protein stability index is reported as 2.85. Variant QEAKLLHWNGRHKPWDFPSVHNDC [L24C] has a protein stability index of 3.01. In the case of QEAKLLHWNLRHKPWDFPSVHNDL [G10L], the protein stability index is reported as 2.42. In the case of QEAKLLHWNERHKPWDFPSVHNDL [G10E], the protein stability index is reported as 2.8. With QEAKLLHWNGRHKPWDFPCVHNDL [S19C] the protein stability index was 2.38. QEAKLLHWNGRHKPWDFQSVHNDL [P18Q] showed a protein stability index of 2.83. QEAKLRHWNGRHKPWDFPSVHNDL [L6R] gave a protein stability index of 2.85. With QEAKLPHWNGRHKPWDFPSVHNDL [L6P] the protein stability index was 2.7. Variant QEFKLLHWNGRHKPWDFPSVHNDL [A3F] has a protein stability index of 2.25. In the case of QEAKLLHWNGRHKRWDFPSVHNDL [P14R], the protein stability index is reported as 2.56. For QEAKLLHWNGRHKGWDFPSVHNDL [P14G], the protein stability index was 2.87. Work on QEAKLLHWNGRHKPWDFPSVHFDL [N22F] yielded a protein stability index of 2.08. Work on QEAKLLHWNGRHKPWDFPSVHNYL [D23Y] yielded a protein stability index of 1.98. In the case of QEAKLLHWNGRHKPIDFPSVHNDL [W15I], the protein stability index is reported as 3.02. Work on QEAKLLHWNGRHDPWDFPSVHNDL [K13D] yielded a protein stability index of 3.73. LEAKLLHWNGRHKPWDFPSVHNDL [Q1L] gave a protein stability index of 2.1. Work on IEAKLLHWNGRHKPWDFPSVHNDL [Q1I] yielded a protein stability index of 1.69. In the case of QEAKLLHWNGRHKPWDFPSFHNDL [V20F], the protein stability index is reported as 2.53. In the case of QEAKLLHWNGRHKPWDFPSSHNDL [V20S], the protein stability index is reported as 3. Variant QEAKLLHWNGRHKPWDFPSGHNDL [V20G] has a protein stability index of 2.84. Variant QEAKQLHWNGRHKPWDFPSVHNDL [L5Q] has a protein stability index of 2.83.
